According to patent US20090214547A1:
Several values for one entry are separate records, joined by “and”; a condition that tells them apart may be missing. Equal entries are not always repeated.

Tests used:
[1] = molecular target: Peptide GNT-04; experiment: peptide ELISA, plate 2 overview
[2] = molecular target: PLY Peptide 10146; experiment: peptide ELISA, plate 2 overview
[3] = molecular target: Peptide GNT-08; experiment: peptide ELISA, plate 2 overview
[4] = molecular target: Peptide GNT-061; experiment: peptide ELISA, plate 2 overview
[5] = molecular target: Peptide GNT-14; experiment: peptide ELISA, plate 2 overview
[6] = molecular target: Peptide GNT-10; experiment: peptide ELISA, plate 2 overview
[7] = molecular target: Peptide GNT-05; experiment: peptide ELISA, plate 2 overview
[8] = molecular target: Peptide GNT-09; experiment: peptide ELISA, plate 2 overview
[9] = molecular target: PsaA Peptide 9144; experiment: peptide ELISA, plate 2 overview
[10] = molecular target: Peptide GNT-02; experiment: peptide ELISA, plate 2 overview
[11] = molecular target: Peptide GNT-13; experiment: peptide ELISA, plate 2 overview
[12] = molecular target: Peptide GNT-06; experiment: peptide ELISA, plate 2 overview
[13] = molecular target: Peptide GNT-07; experiment: peptide ELISA, plate 2 overview
[14] = molecular target: Peptide GNT-062; experiment: peptide ELISA, plate 2 overview
[15] = molecular target: Peptide GNT-01; experiment: peptide ELISA, plate 2 overview
[16] = molecular target: PLY Peptide 10146; experiment: peptide ELISA, plate 1 overview
[17] = molecular target: Peptide GNT-08; experiment: peptide ELISA, plate 1 overview
[18] = molecular target: Peptide GNT-14; experiment: peptide ELISA, plate 1 overview
[19] = molecular target: PsaA Peptide 9144; experiment: peptide ELISA, plate 1 overview
[20] = molecular target: Peptide GNT-02; experiment: peptide ELISA, plate 1 overview
[21] = molecular target: Peptide GNT-13; experiment: peptide ELISA, plate 1 overview
[22] = molecular target: Peptide GNT-07; experiment: peptide ELISA, plate 1 overview
[23] = molecular target: Peptide GNT-01; experiment: peptide ELISA, plate 1 overview
[24] = molecular target: PLY Peptide 10146; experiment: peptide ELISA, plate 1
[25] = molecular target: Peptide GNT-08; experiment: peptide ELISA, plate 1
[26] = molecular target: Peptide GNT-14; experiment: peptide ELISA, plate 1
[27] = molecular target: PsaA Peptide 9144; experiment: peptide ELISA, plate 1
[28] = molecular target: Peptide GNT-02; experiment: peptide ELISA, plate 1
[29] = molecular target: Peptide GNT-13; experiment: peptide ELISA, plate 1
[30] = molecular target: Peptide GNT-01; experiment: peptide ELISA, plate 1
[31] = molecular target: Peptide GNT-04; experiment: peptide ELISA, plate 2
[32] = molecular target: PLY Peptide 10146; experiment: peptide ELISA, plate 2
[33] = molecular target: Peptide GNT-08; experiment: peptide ELISA, plate 2
[34] = molecular target: Peptide GNT-061; experiment: peptide ELISA, plate 2
[35] = molecular target: Peptide GNT-14; experiment: peptide ELISA, plate 2
[36] = molecular target: Peptide GNT-10; experiment: peptide ELISA, plate 2
[37] = molecular target: Peptide GNT-05; experiment: peptide ELISA, plate 2
[38] = molecular target: Peptide GNT-09; experiment: peptide ELISA, plate 2
[39] = molecular target: PsaA Peptide 9144; experiment: peptide ELISA, plate 2
[40] = molecular target: Peptide GNT-13; experiment: peptide ELISA, plate 2
[41] = molecular target: Peptide GNT-06; experiment: peptide ELISA, plate 2
[42] = molecular target: Peptide GNT-07; experiment: peptide ELISA, plate 2
[43] = molecular target: Peptide GNT-062; experiment: peptide ELISA, plate 2
[44] = molecular target: Peptide GNT-01; experiment: peptide ELISA, plate 2

B1: 22-1C11.1 (antibody, V domains shown)
VH: VKLQESGGGVVQPGRSLRLSCAASGFTFSNYGMHWVRQAPGKGLEWVAVIWYDGSNKYYADFVKGRFTISRDNSKNTLYLQMNSLRAEDTAVYYCARRGNYYGLGSFYYYGMDVWGQGTTVTVSS
VL: DIQMTQSPATLSLSPGERATLSCRASQSVSSYLAWYQQKPGQAPRLLIYDASNRATGIPARFSGSGSGTDFTLTISSLEPEDFAVYYCQQCSNWHPTFGQGTKLEIKR
Elisa reading [1]: 0.75 | Elisa reading [2]: 1.58 | Elisa reading [3]: 0.73 | Elisa reading [4]: 0.61 | Elisa reading [5]: 0.26 | Elisa reading [6]: 0.4 | Elisa reading [7]: 0.82 | Elisa reading [8]: 0.48 | Elisa reading [9]: 0.54 | Elisa reading [10]: > 3 | Elisa reading [11]: 0.26 | Elisa reading [12]: 0.56 | Elisa reading [13]: 0.68 | Elisa reading [14]: 0.84 | Elisa reading [15]: 1.27 | Elisa reading [16]: 1.09 | Elisa reading [17]: 0.71 | Elisa reading [18]: 0.1 | Elisa reading [19]: 0.16 | Elisa reading [20]: 2.05 | Elisa reading [21]: 0.11 | Elisa reading [22]: 0.24 | Elisa reading [23]: 0.72 | Elisa reading [24]: 1.09 and 1.71 and 2.24 | Elisa reading [25]: 0.71 and 0.91 and 1.52 | Elisa reading [26]: 0.1 and 0.22 | Elisa reading [27]: 0.16 and 0.1 and 0.19 | Elisa reading [28]: 2.05 and 2.51 and 3 | Elisa reading [29]: 0.11 and 0.12 and 0.25 | Elisa reading [30]: 0.72 and 1.16 and 1.7 | Elisa reading [31]: 0.748 | Elisa reading [32]: 1.58 | Elisa reading [33]: 0.73 | Elisa reading [34]: 0.61 | Elisa reading [35]: 0.257 | Elisa reading [36]: 0.403 | Elisa reading [37]: 0.816 | Elisa reading [38]: 0.475 | Elisa reading [39]: 0.539 | Elisa reading [40]: 0.264 | Elisa reading [41]: 0.56 | Elisa reading [42]: 0.681 | Elisa reading [43]: 0.844 | Elisa reading [44]: 1.27
